{
  "source": "the RNAGym collection of RNA variant scans (doi:10.7554/elife.80360)",
  "parents": {"B1": {"name": "HDV Ribozyme (parent)", "chain": "GGCCGGCAUGGUCCCAGCCUCCUCGCUGGCGCCGGCUGGGCAACAUUCCGAGGGGACCGUCCCCUCGGUAAUGGCGAAUGGGACCCA"}},
  "data": [
    {"variants_of": "B1", "assay": "self-cleavage, relative activity (ratio to wild type); higher = more cleavage; co-transcriptional", "values": [
      {"variant": "C44A C63G", "self-cleavage": 0.831},
      {"variant": "C44A C63U", "self-cleavage": 0.973},
      {"variant": "C44A C86G", "self-cleavage": 0.787},
      {"variant": "C44G A83U", "self-cleavage": 0.38},
      {"variant": "C44G A83C", "self-cleavage": 0.284},
      {"variant": "C44G U79C", "self-cleavage": 0.297},
      {"variant": "C44G U47G", "self-cleavage": 0.475},
      {"variant": "C44G U47A", "self-cleavage": 0.653},
      {"variant": "C44G U47C", "self-cleavage": 0.554},
      {"variant": "C44U A70C", "self-cleavage": 0.831},
      {"variant": "C44A G59U", "self-cleavage": 0.776},
      {"variant": "C44A C57A", "self-cleavage": 0.752},
      {"variant": "C44A C57G", "self-cleavage": 0.684},
      {"variant": "C44A C61U", "self-cleavage": 0.758},
      {"variant": "C44A C61G", "self-cleavage": 0.608},
      {"variant": "C44A C61A", "self-cleavage": 0.618},
      {"variant": "C44G C86A", "self-cleavage": 0.767},
      {"variant": "C44G C86G", "self-cleavage": 0.499},
      {"variant": "C44A G53U", "self-cleavage": 0.929},
      {"variant": "C44A G53A", "self-cleavage": 0.831},
      {"variant": "C44G C61G", "self-cleavage": 0.441},
      {"variant": "C44A A87C", "self-cleavage": 0.74},
      {"variant": "C44U A78U", "self-cleavage": 0.148},
      {"variant": "C44A G81U", "self-cleavage": 0.203},
      {"variant": "C44G C63U", "self-cleavage": 0.81},
      {"variant": "C44G C63A", "self-cleavage": 0.491},
      {"variant": "C44A C58G", "self-cleavage": 0.831},
      {"variant": "C44U C48G", "self-cleavage": 0.567},
      {"variant": "C44U A71U", "self-cleavage": 0.972},
      {"variant": "C44U A71C", "self-cleavage": 0.851},
      {"variant": "C44U A71G", "self-cleavage": 0.95},
      {"variant": "C44G C75U", "self-cleavage": 0.0627},
      {"variant": "C44G C75G", "self-cleavage": 0.256},
      {"variant": "C44G U60C", "self-cleavage": 0.569},
      {"variant": "C44G U60G", "self-cleavage": 0.76},
      {"variant": "C44G U60A", "self-cleavage": 0.798},
      {"variant": "C44A U79A", "self-cleavage": 0.244},
      {"variant": "C44A U79C", "self-cleavage": 0.122},
      {"variant": "C44U A45C", "self-cleavage": 0.739},
      {"variant": "C44G C57U", "self-cleavage": 0.745},
      {"variant": "C44G C57G", "self-cleavage": 0.458},
      {"variant": "C44G C57A", "self-cleavage": 0.944},
      {"variant": "C44A C62U", "self-cleavage": 0.723},
      {"variant": "C44A C62A", "self-cleavage": 0.708},
      {"variant": "C44A C62G", "self-cleavage": 0.162},
      {"variant": "C44G C62G", "self-cleavage": 0.485},
      {"variant": "C44G C62U", "self-cleavage": 0.758},
      {"variant": "C44G C49U", "self-cleavage": 0.617},
      {"variant": "C44G C49A", "self-cleavage": 0.665},
      {"variant": "C44A G55A", "self-cleavage": 0.554},
      {"variant": "C44A U60C", "self-cleavage": 0.831},
      {"variant": "C44A G50A", "self-cleavage": 0.671},
      {"variant": "C44A G50U", "self-cleavage": 0.594},
      {"variant": "C44A A56C", "self-cleavage": 0.853},
      {"variant": "C44G A77G", "self-cleavage": 0.665},
      {"variant": "C44G A77C", "self-cleavage": 0.297},
      {"variant": "C44A A83C", "self-cleavage": 0.269},
      {"variant": "C44A A83U", "self-cleavage": 0.0615},
      {"variant": "C44G C48A", "self-cleavage": 0.543},
      {"variant": "C44G C48U", "self-cleavage": 0.517},
      {"variant": "C44G C84G", "self-cleavage": 0.375},
      {"variant": "C44G C84U", "self-cleavage": 0.53},
      {"variant": "C44G C84A", "self-cleavage": 0.394},
      {"variant": "C44G A87C", "self-cleavage": 0.621},
      {"variant": "C44G A87G", "self-cleavage": 0.641},
      {"variant": "C44A C84A", "self-cleavage": 0.541},
      {"variant": "C44A C84G", "self-cleavage": 0.0519},
      {"variant": "C44A C64A", "self-cleavage": 0.665},
      {"variant": "C44A C64G", "self-cleavage": 0.814},
      {"variant": "C44G A70G", "self-cleavage": 0.525},
      {"variant": "C44G A70C", "self-cleavage": 0.831},
      {"variant": "C44G G53U", "self-cleavage": 0.939},
      {"variant": "C44U C58A", "self-cleavage": 1.07},
      {"variant": "C44U C49A", "self-cleavage": 0.892},
      {"variant": "C44U C49G", "self-cleavage": 0.935},
      {"variant": "C44U C49U", "self-cleavage": 0.96},
      {"variant": "C44G C85G", "self-cleavage": 0.831},
      {"variant": "C44G C85U", "self-cleavage": 0.892},
      {"variant": "C44G C85A", "self-cleavage": 0.525},
      {"variant": "C44A A78G", "self-cleavage": 0.175},
      {"variant": "C44A A78U", "self-cleavage": 0.104},
      {"variant": "C44U A87U", "self-cleavage": 0.718},
      {"variant": "C44G U65A", "self-cleavage": 0.443},
      {"variant": "C44G G74U", "self-cleavage": 0.318},
      {"variant": "C44G G74A", "self-cleavage": 0.523},
      {"variant": "C44G C64G", "self-cleavage": 0.678},
      {"variant": "C44G G80C", "self-cleavage": 0.0405},
      {"variant": "C44G U46G", "self-cleavage": 0.609},
      {"variant": "C44G U46C", "self-cleavage": 0.748},
      {"variant": "C44A G73C", "self-cleavage": 0.696},
      {"variant": "C44A G73U", "self-cleavage": 0.397},
      {"variant": "C44A G73A", "self-cleavage": 0.577},
      {"variant": "C44G A45U", "self-cleavage": 0.776},
      {"variant": "C44G A45G", "self-cleavage": 0.503},
      {"variant": "C44G G81A", "self-cleavage": 0.277},
      {"variant": "C44G G81U", "self-cleavage": 0.271},
      {"variant": "C44G A78G", "self-cleavage": 0.246},
      {"variant": "C44G A78C", "self-cleavage": 0.193},
      {"variant": "C44G G76A", "self-cleavage": 0.8},
      {"variant": "C44G G76C", "self-cleavage": 0.511},
      {"variant": "C44G G76U", "self-cleavage": 1.03},
      {"variant": "C44G A56C", "self-cleavage": 0.745},
      {"variant": "C44G A56G", "self-cleavage": 0.886},
      {"variant": "C44U A77U", "self-cleavage": 0.111},
      {"variant": "C44G G67A", "self-cleavage": 0.65},
      {"variant": "C44G G67U", "self-cleavage": 0.68},
      {"variant": "C44G C58A", "self-cleavage": 1.07},
      {"variant": "C44G G54U", "self-cleavage": 0.609},
      {"variant": "C44G A71C", "self-cleavage": 0.76},
      {"variant": "C44A G54C", "self-cleavage": 0.618},
      {"variant": "C44A G54U", "self-cleavage": 0.794},
      {"variant": "C44A G54A", "self-cleavage": 0.759},
      {"variant": "C44A A71U", "self-cleavage": 0.81},
      {"variant": "C44A A77G", "self-cleavage": 0.396},
      {"variant": "C44A A77C", "self-cleavage": 0.128},
      {"variant": "C44A A77U", "self-cleavage": 0.203},
      {"variant": "C44A U65A", "self-cleavage": 0.95},
      {"variant": "C44U C61G", "self-cleavage": 0.786},
      {"variant": "C44G G55U", "self-cleavage": 0.65},
      {"variant": "C44G G55C", "self-cleavage": 0.898},
      {"variant": "C44A C48G", "self-cleavage": 0.594},
      {"variant": "C44A C48U", "self-cleavage": 0.692},
      {"variant": "C44A G52U", "self-cleavage": 0.913},
      {"variant": "C44A G52A", "self-cleavage": 0.776},
      {"variant": "C44G U69G", "self-cleavage": 0.443},
      {"variant": "C44U A83G", "self-cleavage": 0.48},
      {"variant": "C44U A83U", "self-cleavage": 0.208},
      {"variant": "C44G G82A", "self-cleavage": 0.309},
      {"variant": "C44G G82C", "self-cleavage": 0.0504},
      {"variant": "C44A U72C", "self-cleavage": 0.467},
      {"variant": "C44A U72A", "self-cleavage": 0.733},
      {"variant": "C44A C75G", "self-cleavage": 0.369},
      {"variant": "C44G C66A", "self-cleavage": 0.692},
      {"variant": "C44A G80C", "self-cleavage": 0.109},
      {"variant": "C44A G80U", "self-cleavage": 0.118},
      {"variant": "C44A G80A", "self-cleavage": 0.169},
      {"variant": "C44G U72G", "self-cleavage": 0.446},
      {"variant": "C44G U72A", "self-cleavage": 0.229},
      {"variant": "C44A G68C", "self-cleavage": 0.764},
      {"variant": "C44A G68U", "self-cleavage": 0.554},
      {"variant": "C44A G74A", "self-cleavage": 0.381},
      {"variant": "C44G G68U", "self-cleavage": 0.399},
      {"variant": "C44G G68A", "self-cleavage": 0.677},
      {"variant": "C44A C49G", "self-cleavage": 0.511},
      {"variant": "C44A C49U", "self-cleavage": 0.462},
      {"variant": "C44A C49A", "self-cleavage": 0.554},
      {"variant": "C44U A51C", "self-cleavage": 0.931},
      {"variant": "C44U A51G", "self-cleavage": 1.04},
      {"variant": "C44U A51U", "self-cleavage": 0.789},
      {"variant": "C44A G67C", "self-cleavage": 0.712},
      {"variant": "C44G G52C", "self-cleavage": 0.724},
      {"variant": "C44A C66G", "self-cleavage": 0.898},
      {"variant": "C44A C66A", "self-cleavage": 0.628},
      {"variant": "C44G G73A", "self-cleavage": 0.522},
      {"variant": "C44A G82U", "self-cleavage": 0.0791},
      {"variant": "C44A U46C", "self-cleavage": 0.767},
      {"variant": "C44G G59C", "self-cleavage": 0.95},
      {"variant": "C44G G59U", "self-cleavage": 0.81},
      {"variant": "C44G A51C", "self-cleavage": 0.447},
      {"variant": "C44G A51U", "self-cleavage": 0.591},
      {"variant": "C44U", "self-cleavage": 0.803},
      {"variant": "C44G", "self-cleavage": 0.753},
      {"variant": "C44U C57G", "self-cleavage": 0.612},
      {"variant": "C44U C57U", "self-cleavage": 0.704},
      {"variant": "C44A U47G", "self-cleavage": 0.906},
      {"variant": "C44A U47C", "self-cleavage": 0.831},
      {"variant": "C44A U47A", "self-cleavage": 0.965}
    ]}
  ]
}
